Test results reported in patent publication US20100297135A1 (CRC FOR ASTHMA AND AIRWAYS, published 2010).

Columns and labels:
wild type human GM-CSF [1] = target: T1, wild type human GM-CSF (human, UniProt P04141 18-144); assay: SPR (Biacore), human GM-CSF coated on CM5 chip, antibody injected; GM-CSF coated onto CM5 chip, antibody injected
T1 construct: Biacore and TF-1 assays used recombinant human GM-CSF (Peprotech); also called recombinant human GM-CSF; WT
Protocol: (§1) Recombinant human GM-CSF was coated onto a CM5 chip to determine the binding kinetics of 4K21 mAb. An uncoated flow cell was used as a reference. The antibody, prepared in HBS-EP at concentrations of 66.7 nM to 4.17 nM with 2-fold serial dilution, was injected for 2 minutes with a stabilisation time of 10 minutes and dissociation time of 15 minutes. The BIACore kinetic analysis wizard was run to determine each antibody's association (ka [1/Ms]), dissociation (kd[1/s]) and affinity (KD [nM]) to GM-CSF. […] Moreover, binding of 4K21 mAb to human GM-CSF is highly specific.

wild type human GM-CSF [2] = target: T1, wild type human GM-CSF; assay: cell-based or functional assay
[3] = target: T2, human GM-CSF mutant M2 (R24 to M37 replaced by murine sequence) (human); assay: semi-quantitative ELISA; GM-CSF polypeptide coated in 2-fold dilutions (x axis = coating concentration), 4K21 fixed at 12.5 ng/ml, goat anti-mouse IgG-HRP, absorbance 450 nm
T2 construct: The flanking ranges are derived from the stated region
Protocol: (§2) The binding analysis of 4K21 to the mutant GM-CSF polypeptides M1 to M5b was performed using a semi-quantitative ELISA. Approximately equal amounts of GM-CSF were used to coat a Maxisorb (Nunc. Cat #464718) 384 well plate and serially diluted 2-fold to the bottom of the plate (16 times). Coating was performed overnight at room temperature. Plates were washed 3 times with wash buffer (1×PBS, 0.05% tween) and blocked for 1 hr at 37° C. with PBS, 1% BSA solution. Plates were then washed 3 times with wash buffer. […] The plates were washed 3 times with wash buffer then secondary antibody, HRP conjugated goat anti mouse IgG (Jackson Cat #115-036-062) for 4K21 and rabbit anti rat IgG (BD, cat#P0450) for the BD commercial antibody was added to the wells at 1/5000 dilution and incubated at 37° C. for 1 hr. Plates were washed 4 times following which BD OptEIA TMB substrate (Cat #555214), prepared according to the manufacturer's instructions, was added to the wells and incubated at room temperature for 10 minutes. The reaction was stopped with 1M sulphuric acid and the plate read on a Tecan plate reader at 450 nm with reference filter at 620 nm.

S96A = target: T3, S96A; assay: semi-quantitative ELISA; GM-CSF polypeptide coated in serial dilutions (x axis = log coating concentration, no unit), 4K21 fixed at 12.5 ng/ml, goat anti-mouse IgG-HRP, absorbance
T3 construct: also called human GM-CSF alanine mutant S96A
Protocol: as §2
(§3) Binding analysis was carried out essentially as described above with the exception of the method of quantitation. The BD antibody was used to quantitate the relative expression of the alanine mutants as none of these mutants were in the M2 binding epitope of the BD antibody. […] The binding was then compared to 4K21 used at 12.5 ng/ml with the secondary antibody being goat anti-mouse IgG-HRP antibody (Cat #115-036-062) at 1/2500 dilution.

T99A = target: T4, T99A; assay: as above
T4 construct: also called human GM-CSF alanine mutant T99A; the BD entry of the legend box prints 'T97A'
Protocol: as §2, §3

[4] = target: human GM-CSF alanine mutant I101A (human, UniProt P04141 18-144); assay: as above
Protocol: as §2, §3

[5] = target: human GM-CSF alanine mutant C89A (human, UniProt P04141 18-144); assay: as above
Protocol: as §2, §3

Q100A = target: T5, Q100A; assay: as above
T5 construct: also called human GM-CSF alanine mutant Q100A
Protocol: as §2, §3

murine GM-CSF = target: T6, murine GM-CSF (murine, UniProt P01587 18-141); assay: semi-quantitative ELISA (data not shown)
T6 construct: also called wild type murine GM-CSF
T6 sequence (looked up): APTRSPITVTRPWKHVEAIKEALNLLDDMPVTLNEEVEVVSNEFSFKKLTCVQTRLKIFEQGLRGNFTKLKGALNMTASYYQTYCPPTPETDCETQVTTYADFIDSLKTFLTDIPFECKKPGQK

wild type human GM-CSF [6] = target: T1, wild type human GM-CSF; assay: SPR (Biacore), alternative method of antibody capture; alternative method of antibody capture
wild type human GM-CSF [7] = target: T1, wild type human GM-CSF; assay: SPR (Biacore), human GM-CSF coated on CM5 chip, antibody injected
Protocol: as §1

T1 sequence (P04141 other isoform, or with tags, fused parts or gaps limits assumed): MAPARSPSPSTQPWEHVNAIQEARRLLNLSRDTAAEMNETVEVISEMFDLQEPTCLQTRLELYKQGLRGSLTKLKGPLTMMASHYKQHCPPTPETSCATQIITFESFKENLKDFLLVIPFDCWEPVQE
human GM-CSF alanine mutant I101A, sequence (P04141 other isoform, or with tags, fused parts or gaps I101A I101A limits assumed): as the sequence (P04141 other isoform, or with tags, fused parts or gaps limits assumed) above, with I101A counted along it
T2 sequence (P04141 other isoform, or with tags, fused parts or gaps mutant): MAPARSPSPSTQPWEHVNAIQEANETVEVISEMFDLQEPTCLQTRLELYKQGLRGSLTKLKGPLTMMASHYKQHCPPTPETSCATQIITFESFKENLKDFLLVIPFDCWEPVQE
T3 sequence (single chain, as listed by the source S96A S96A): as the sequence (P04141 other isoform, or with tags, fused parts or gaps limits assumed) above, with S96A counted along it
human GM-CSF alanine mutant C89A, sequence (P04141 other isoform, or with tags, fused parts or gaps C89A C89A limits assumed): as the sequence (P04141 other isoform, or with tags, fused parts or gaps limits assumed) above, with C89A counted along it
T4 sequence (single chain, as listed by the source T99A T99A): as the sequence (P04141 other isoform, or with tags, fused parts or gaps limits assumed) above, with T99A counted along it
T5 sequence (single chain, as listed by the source Q100A Q100A): as the sequence (P04141 other isoform, or with tags, fused parts or gaps limits assumed) above, with Q100A counted along it

B1: murine anti-human GM-CSF monoclonal antibody 4K21-O11-E14 (antibody, V domains shown)
VH: EVQLVESGGGLVKSGGSLKLSCAASGFAFSAYDMSWVRQTPEKRLELVAYISSGGSSFYYPDTVKGRFTISRDNAKNTLYLQMSSLKSEDTAMYYCTRHLGFDYWGQGTTLTVSS
VL: DVVMTQTPLSLPVSLGDQASISCRSSQSLVNSNGNTYLHWFLQKPGQSPKLLIYKVSNRFSGVPDRFSGSGSGTDFTLKISRVEAEDLGVYFCSQSTHVPPTFGGGTKLEIK
notes: Murine monoclonal antibody from a hybridoma (ECACC 07051601), detected with anti-mouse IgG; also called 4K21 mAb; mAb 4K21
B1 was tested, and the Kd (wild type human GM-CSF [1]) was about 0.2 nM, the “IC50, neutralisation of human GM-CSF dependent TF-1 cell growth (3H-thymidine)” value (wild type human GM-CSF [2]) was about 0.308 nM and the “EC50 (read off the curve)” value [3] was about 20 µg/mL. B1: binds (S96A); binds (T99A); binds [4]. B1: binds [5]; binds (Q100A); no binding (murine GM-CSF). For the same binder, the Kd (wild type human GM-CSF [6]) was about 0.43 nM, the Ka (wild type human GM-CSF [7]) was over 5.9e+09 M⁻¹ and the Kd (wild type human GM-CSF [7]) was under 0.17 nM. It also gave a koff (wild type human GM-CSF [7]) of under 1e-05 s⁻¹ and a kon (wild type human GM-CSF [7]) of 59000 M⁻¹ s⁻¹.
